Starred links: 1 amine or outer side, 2 acyl side, 3 side chain; linkers in the order of their positions; H or OH if unused. Non-standard residues stand in square brackets, D forms with d. Groups on a side chain read outwards from the residue. No end group written: not given here. *: point of attachment. PEG12 = NCCOCCOCCOCCOCCOCCOCCOCCOCCOCCOCCOCCOCCC(=O)O; C18 diacid = O=C(O)CCCCCCCCCCCCCCCCC(=O)*; PEG8 = NCCOCCOCCOCCOCCOCCOCCOCCOCCC(=O)O; Dip = N[C@H](C(=O)O)C(c1ccccc1)c1ccccc1; Heptadecanoyl = CCCCCCCCCCCCCCCCC(=O)*; γGlu = O=C(O)[C@H](CCC(=O)[*:2])N[*:1]; Stearoyl = CCCCCCCCCCCCCCCCCC(=O)*; Palmitoyl = CCCCCCCCCCCCCCCC(=O)*; αMeF = C[C@](N)(Cc1ccccc1)C(=O)O; (PEG)2 = polyethylene glycol 2; PEG4 = NCCOCCOCCOCCOCCC(=O)O; Dodecyl = CCCCCCCCCCCC*; AEEA = NCCOCCOCC(=O)O; Aib = CC(C)(N)C(=O)O
B1: Peptide 56 (peptide)
peptide: HSQGS[αMeF]TSDVSK[Dip]LDSK([PEG4-γGlu-γGlu-Stearoyl])AAQD[αMeF]VE[Aib]IINT-NH2
modifications: N-terminus assumed
SMILES: CCCCCCCCCCCCCCCCCC(=O)N[C@@H](CCC(=O)N[C@@H](CCC(=O)NCCOCCOCCOCCOCCC(=O)NCCCC[C@H](NC(=O)[C@H](CO)NC(=O)[C@H](CC(=O)O)NC(=O)[C@H](CC(C)C)NC(=O)[C@@H](NC(=O)[C@H](CCCCN)NC(=O)[C@H](CO)NC(=O)[C@@H](NC(=O)[C@H](CC(=O)O)NC(=O)[C@H](CO)NC(=O)[C@@H](NC(=O)[C@](C)(Cc1ccccc1)NC(=O)[C@H](CO)NC(=O)CNC(=O)[C@H](CCC(N)=O)NC(=O)[C@H](CO)NC(=O)[C@@H](N)Cc1c[nH]cn1)[C@@H](C)O)C(C)C)C(c1ccccc1)c1ccccc1)C(=O)N[C@@H](C)C(=O)N[C@@H](C)C(=O)N[C@@H](CCC(N)=O)C(=O)N[C@@H](CC(=O)O)C(=O)N[C@@](C)(Cc1ccccc1)C(=O)N[C@H](C(=O)N[C@@H](CCC(=O)O)C(=O)NC(C)(C)C(=O)N[C@H](C(=O)N[C@H](C(=O)N[C@@H](CC(N)=O)C(=O)N[C@H](C(N)=O)[C@@H](C)O)[C@@H](C)CC)[C@@H](C)CC)C(C)C)C(=O)O)C(=O)O
B2: Peptide 7 (peptide)
peptide: H[Aib]HGS[αMeF]TSDVSK[αMeF]LDSK([γGlu-C18 diacid])AAQD[αMeF]VEWIANT-NH2
modifications: N-terminus assumed
SMILES: CC[C@H](C)[C@H](NC(=O)[C@H](Cc1c[nH]c2ccccc12)NC(=O)[C@H](CCC(=O)O)NC(=O)[C@@H](NC(=O)[C@](C)(Cc1ccccc1)NC(=O)[C@H](CC(=O)O)NC(=O)[C@H](CCC(N)=O)NC(=O)[C@H](C)NC(=O)[C@H](C)NC(=O)[C@H](CCCCNC(=O)CC[C@H](NC(=O)CCCCCCCCCCCCCCCCC(=O)O)C(=O)O)NC(=O)[C@H](CO)NC(=O)[C@H](CC(=O)O)NC(=O)[C@H](CC(C)C)NC(=O)[C@](C)(Cc1ccccc1)NC(=O)[C@H](CCCCN)NC(=O)[C@H](CO)NC(=O)[C@@H](NC(=O)[C@H](CC(=O)O)NC(=O)[C@H](CO)NC(=O)[C@@H](NC(=O)[C@](C)(Cc1ccccc1)NC(=O)[C@H](CO)NC(=O)CNC(=O)[C@H](Cc1c[nH]cn1)NC(=O)C(C)(C)NC(=O)[C@@H](N)Cc1c[nH]cn1)[C@@H](C)O)C(C)C)C(C)C)C(=O)N[C@@H](C)C(=O)N[C@@H](CC(N)=O)C(=O)N[C@H](C(N)=O)[C@@H](C)O
B3: Peptide 58 (peptide)
peptide: HSQGS[αMeF]TSDVSK[Dip]LDSK([PEG12-γGlu-γGlu-Stearoyl])AAQD[αMeF]VE[Aib]IINT-NH2
modifications: N-terminus assumed
SMILES: CCCCCCCCCCCCCCCCCC(=O)N[C@@H](CCC(=O)N[C@@H](CCC(=O)NCCOCCOCCOCCOCCOCCOCCOCCOCCOCCOCCOCCOCCC(=O)NCCCC[C@H](NC(=O)[C@H](CO)NC(=O)[C@H](CC(=O)O)NC(=O)[C@H](CC(C)C)NC(=O)[C@@H](NC(=O)[C@H](CCCCN)NC(=O)[C@H](CO)NC(=O)[C@@H](NC(=O)[C@H](CC(=O)O)NC(=O)[C@H](CO)NC(=O)[C@@H](NC(=O)[C@](C)(Cc1ccccc1)NC(=O)[C@H](CO)NC(=O)CNC(=O)[C@H](CCC(N)=O)NC(=O)[C@H](CO)NC(=O)[C@@H](N)Cc1c[nH]cn1)[C@@H](C)O)C(C)C)C(c1ccccc1)c1ccccc1)C(=O)N[C@@H](C)C(=O)N[C@@H](C)C(=O)N[C@@H](CCC(N)=O)C(=O)N[C@@H](CC(=O)O)C(=O)N[C@@](C)(Cc1ccccc1)C(=O)N[C@H](C(=O)N[C@@H](CCC(=O)O)C(=O)NC(C)(C)C(=O)N[C@H](C(=O)N[C@H](C(=O)N[C@@H](CC(N)=O)C(=O)N[C@H](C(N)=O)[C@@H](C)O)[C@@H](C)CC)[C@@H](C)CC)C(C)C)C(=O)O)C(=O)O
B4: Peptide 57 (peptide)
peptide: HSQGS[αMeF]TSDVSK[Dip]LDSK([PEG8-γGlu-γGlu-Stearoyl])AAQD[αMeF]VE[Aib]IINT-NH2
modifications: N-terminus assumed
SMILES: CCCCCCCCCCCCCCCCCC(=O)N[C@@H](CCC(=O)N[C@@H](CCC(=O)NCCOCCOCCOCCOCCOCCOCCOCCOCCC(=O)NCCCC[C@H](NC(=O)[C@H](CO)NC(=O)[C@H](CC(=O)O)NC(=O)[C@H](CC(C)C)NC(=O)[C@@H](NC(=O)[C@H](CCCCN)NC(=O)[C@H](CO)NC(=O)[C@@H](NC(=O)[C@H](CC(=O)O)NC(=O)[C@H](CO)NC(=O)[C@@H](NC(=O)[C@](C)(Cc1ccccc1)NC(=O)[C@H](CO)NC(=O)CNC(=O)[C@H](CCC(N)=O)NC(=O)[C@H](CO)NC(=O)[C@@H](N)Cc1c[nH]cn1)[C@@H](C)O)C(C)C)C(c1ccccc1)c1ccccc1)C(=O)N[C@@H](C)C(=O)N[C@@H](C)C(=O)N[C@@H](CCC(N)=O)C(=O)N[C@@H](CC(=O)O)C(=O)N[C@@](C)(Cc1ccccc1)C(=O)N[C@H](C(=O)N[C@@H](CCC(=O)O)C(=O)NC(C)(C)C(=O)N[C@H](C(=O)N[C@H](C(=O)N[C@@H](CC(N)=O)C(=O)N[C@H](C(N)=O)[C@@H](C)O)[C@@H](C)CC)[C@@H](C)CC)C(C)C)C(=O)O)C(=O)O
B5: Peptide 72 (peptide)
peptide: H[Aib]QGS[αMeF]TSDVSK[αMeF]LDSK([PEG4-γGlu-γGlu-Palmitoyl])AAQD[αMeF]VE[Aib]LEAGG-NH2
modifications: N-terminus assumed
SMILES: CCCCCCCCCCCCCCCC(=O)N[C@@H](CCC(=O)N[C@@H](CCC(=O)NCCOCCOCCOCCOCCC(=O)NCCCC[C@H](NC(=O)[C@H](CO)NC(=O)[C@H](CC(=O)O)NC(=O)[C@H](CC(C)C)NC(=O)[C@](C)(Cc1ccccc1)NC(=O)[C@H](CCCCN)NC(=O)[C@H](CO)NC(=O)[C@@H](NC(=O)[C@H](CC(=O)O)NC(=O)[C@H](CO)NC(=O)[C@@H](NC(=O)[C@](C)(Cc1ccccc1)NC(=O)[C@H](CO)NC(=O)CNC(=O)[C@H](CCC(N)=O)NC(=O)C(C)(C)NC(=O)[C@@H](N)Cc1c[nH]cn1)[C@@H](C)O)C(C)C)C(=O)N[C@@H](C)C(=O)N[C@@H](C)C(=O)N[C@@H](CCC(N)=O)C(=O)N[C@@H](CC(=O)O)C(=O)N[C@@](C)(Cc1ccccc1)C(=O)N[C@H](C(=O)N[C@@H](CCC(=O)O)C(=O)NC(C)(C)C(=O)N[C@@H](CC(C)C)C(=O)N[C@@H](CCC(=O)O)C(=O)N[C@@H](C)C(=O)NCC(=O)NCC(N)=O)C(C)C)C(=O)O)C(=O)O

biological target: human glucagon receptor (hGCGR) (human, UniProt P47871 26-477); test: cell-based or functional assay
Sequence (P47871 26-477): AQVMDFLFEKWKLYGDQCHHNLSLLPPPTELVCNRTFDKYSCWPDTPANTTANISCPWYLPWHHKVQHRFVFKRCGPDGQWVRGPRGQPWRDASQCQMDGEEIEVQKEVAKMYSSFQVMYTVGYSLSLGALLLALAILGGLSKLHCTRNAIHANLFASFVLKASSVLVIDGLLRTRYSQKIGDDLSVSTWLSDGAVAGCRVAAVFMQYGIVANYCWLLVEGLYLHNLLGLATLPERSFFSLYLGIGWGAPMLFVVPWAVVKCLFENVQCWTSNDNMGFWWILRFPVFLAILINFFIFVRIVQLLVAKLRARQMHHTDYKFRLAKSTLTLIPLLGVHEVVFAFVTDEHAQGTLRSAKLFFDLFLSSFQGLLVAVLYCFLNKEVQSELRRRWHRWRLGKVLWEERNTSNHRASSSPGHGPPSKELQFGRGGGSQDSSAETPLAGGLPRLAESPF

| hGluc-R EC50 (pM) | Binder |
| --- | --- |
| 10.7 | HSQGS[αMeF]TSDVSK[αMeF]LDSK([(PEG)2-(PEG)2-γGlu-γGlu-Palmitoyl])AAQD[αMeF]VQ[Aib]LEAGG-NH2 [Peptide 79] |
| 10.9 | B1 |
| 30.7 | B2 |
| 2.49 | HSQGS[αMeF]TSDVSK[Dip]LDSK([(PEG)2-(PEG)2-γGlu-γGlu-Myristyl])AAQD[αMeF]VE[Aib]IINT-NH2 [Peptide 63] |
| 11.3 | B3 |
| 16.9 | B4 |
| 9.55 | HSQGS[αMeF]TSDVSK[Dip]LDSK([(PEG)2-γGlu-(PEG)2-γGlu-Stearoyl])AAQD[αMeF]VE[Aib]IINT-NH2 [Peptide 61] |
| 9.18 | HSQGS[αMeF]TSDVSK[αMeF]LDSKAAQD[αMeF]VQ[Aib]LEAGG-NH2 (not fully specified (residue 17)) [Peptide 80] |
| 8.46 | HSQGS[αMeF]TSDVSK[αMeF]LDSK([(PEG)2-(PEG)2-γGlu-γGlu-Palmitoyl])AAQD[αMeF]VQ[Aib]IAN-NH2 [Peptide 87] |
| 6.47 | HSQGS[αMeF]TSDVSK[αMeF]LDSK([(PEG)2-(PEG)2-γGlu-γGlu-Heptadecanoyl])AAQD[αMeF]VQ[Aib]IAN-NH2 [Peptide 88] |
| 2060 | HSQGS[αMeF]TSDVSK[Dip]LDSKAAQD[αMeF]VE[Aib]IINT-NH2 (not fully specified (residue 17)) [Peptide 65] |
| 3.06 | HSQGS[αMeF]TSDVSK[Dip]LDSK([(PEG)2-(PEG)2-γGlu-γGlu-Palmitoyl])AAQD[αMeF]VE[Aib]IINT-NH2 [Peptide 64] |
| 9.49 | H[Aib]QGS[αMeF]TSDVSK[Dip]LDSK([(PEG)2-(PEG)2-γGlu-Palmitoyl])AAQD[αMeF]VQ[Aib]IAN-NH2 [Peptide 67] |
| 28.4 | HSQGS[αMeF]TSDVSK[Dip]LDSK([γGlu-γGlu-(PEG)2-(PEG)2-Stearoyl])AAQD[αMeF]VE[Aib]IINT-NH2 [Peptide 59] |
| 73.7 | B5 |
| 118 | H[Aib]HGS[αMeF]TSDVSK[αMeF]LDSK([AEEA-AEEA-γGlu-C18 diacid])AAQDFVQ[Aib]IANT-NH2 [Peptide 11] |
| 21.1 | HSQGS[αMeF]TSDVSK[Dip]LDSK([γGlu-(PEG)2-γGlu-(PEG)2-Stearoyl])AAQD[αMeF]VE[Aib]IINT-NH2 [Peptide 60] |
| 15.2 | HSQGS[αMeF]TSDVSK[Dip]LDSK([(PEG)2-(PEG)2-γGlu-γGlu-Dodecyl])AAQD[αMeF]VE[Aib]IINT-NH2 [Peptide 62] |

biological target: human GLP-1 receptor (hGLP-1R) (human, UniProt P43220 24-463); test: cell-based or functional assay

| hGLP-1R EC50 (pM) | Binder |
| --- | --- |
| 1.73 | HSQGS[αMeF]TSDVSK[αMeF]LDSK([(PEG)2-(PEG)2-γGlu-γGlu-Palmitoyl])AAQD[αMeF]VQ[Aib]LEAGG-NH2 [Peptide 79] |
| 4.86 | B1 |
| 84.6 | B2 |
| 3.14 | HSQGS[αMeF]TSDVSK[Dip]LDSK([(PEG)2-(PEG)2-γGlu-γGlu-Myristyl])AAQD[αMeF]VE[Aib]IINT-NH2 [Peptide 63] |
| 3.9 | B3 |
| 9.09 | B4 |
| 4.12 | HSQGS[αMeF]TSDVSK[Dip]LDSK([(PEG)2-γGlu-(PEG)2-γGlu-Stearoyl])AAQD[αMeF]VE[Aib]IINT-NH2 [Peptide 61] |
| 1.03 | HSQGS[αMeF]TSDVSK[αMeF]LDSKAAQD[αMeF]VQ[Aib]LEAGG-NH2 (not fully specified (residue 17)) [Peptide 80] |
| 1.29 | HSQGS[αMeF]TSDVSK[αMeF]LDSK([(PEG)2-(PEG)2-γGlu-γGlu-Palmitoyl])AAQD[αMeF]VQ[Aib]IAN-NH2 [Peptide 87] |
| 1.04 | HSQGS[αMeF]TSDVSK[αMeF]LDSK([(PEG)2-(PEG)2-γGlu-γGlu-Heptadecanoyl])AAQD[αMeF]VQ[Aib]IAN-NH2 [Peptide 88] |
| 1230 | HSQGS[αMeF]TSDVSK[Dip]LDSKAAQD[αMeF]VE[Aib]IINT-NH2 (not fully specified (residue 17)) [Peptide 65] |
| 2.57 | HSQGS[αMeF]TSDVSK[Dip]LDSK([(PEG)2-(PEG)2-γGlu-γGlu-Palmitoyl])AAQD[αMeF]VE[Aib]IINT-NH2 [Peptide 64] |
| 2.43 | H[Aib]QGS[αMeF]TSDVSK[Dip]LDSK([(PEG)2-(PEG)2-γGlu-Palmitoyl])AAQD[αMeF]VQ[Aib]IAN-NH2 [Peptide 67] |
| 6.18 | HSQGS[αMeF]TSDVSK[Dip]LDSK([γGlu-γGlu-(PEG)2-(PEG)2-Stearoyl])AAQD[αMeF]VE[Aib]IINT-NH2 [Peptide 59] |
| 3.42 | B5 |
| 157 | H[Aib]HGS[αMeF]TSDVSK[αMeF]LDSK([AEEA-AEEA-γGlu-C18 diacid])AAQDFVQ[Aib]IANT-NH2 [Peptide 11] |
| 5.16 | HSQGS[αMeF]TSDVSK[Dip]LDSK([γGlu-(PEG)2-γGlu-(PEG)2-Stearoyl])AAQD[αMeF]VE[Aib]IINT-NH2 [Peptide 60] |
| 10.1 | HSQGS[αMeF]TSDVSK[Dip]LDSK([(PEG)2-(PEG)2-γGlu-γGlu-Dodecyl])AAQD[αMeF]VE[Aib]IINT-NH2 [Peptide 62] |

Source: patent US20230357348A1 (AstraZeneca / MedImmune, published 2023)
